US6022951A (priority 1996, dated 2000)

Test: stability against denaturation by guanidine hydrochloride (remaining biotin-binding ability)
Type: physicochemical
Procedure: Biotin-binding ability was used as an estimate of the structural stability.
Structural stability of core streptavidins against denaturation was estimated from the biotin-binding ability after incubation in guanidine hydrochloride solutions at pH 7.4 and pH 1.5. […] Then, 1.4 μl (680 pmol) of D-[carbonyl-^14 C]biotin was added to each solution. The mixture was incubated at 22° C. for 10 minutes and streptavidin-biotin complexes were separated from free, unbound biotin using PD-10 columns which had been equilibrated with the same guanidine hydrochloride solution (R. -D. Wei, Methods Enzymol. 18A:424-27, 1980).
All of the three core streptavidins bound more than 0.96 molecules of biotin per subunit at pH 7.4 without guanidine hydrochloride and the biotin-binding ability remaining in guanidine hydrochloride is indicated in percent.

[1] = 4 M guanidine hydrochloride, pH 1.5
[2] = 6 M guanidine hydrochloride, pH 7.4

full-length streptavidin: full length streptavidin, monomer of 159 amino acids
biotin bound per subunit in guanidine hydrochloride [1]: about 0.826 molecules biotin per subunit
reduction (loss) of biotin-binding ability [1]: ~15%
biotin bound per subunit in guanidine hydrochloride [2]: about 0.768 molecules biotin per subunit
reduction in biotin-binding ability [2]: about 20%
